Experimental data taken from the supplement of paper PMC12764529.
± gives the half width of the 95% confidence interval.

Key:
[1] = folding stability dG unfold from chymotrypsin proteolysis; higher = more stable
Procedure, shortened: (§1)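 Unfolding free energy was derived, per protease or combined, against a sequence-predicted unfolded-state K50 and a shared folded-state K50, starting from K50 inferred by Bayesian fitting of sequencing counts. Digestion with trypsin and chymotrypsin was carried out on designed mini-proteins under 80 residues without cysteine in a PA-tagged cDNA display construct. Only designs with AlphaFold2 dimer inter-PAE above 15 were kept.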

[2] = folding stability dG unfold (combined trypsin and chymotrypsin); higher = more stable
Procedure, shortened: as §1

[3] = folding stability dG unfold from trypsin proteolysis; higher = more stable
Procedure, shortened: as §1

Sequence	folding stability dG unfold [1]	folding stability dG unfold [2]	folding stability dG unfold [3]
SAGGAVEVKEIKILPPVLDPEGDPSNPLLRVEITTKITENTPEGKKILEKTKTYLVSPENLEEVLKKLSAGG [r13_149_JUSTAS]	8.3 ± 0.293 kJ/mol	9.13 ± 0.544 kJ/mol	8.56 ± 0.272 kJ/mol
SAGGAVVTPETEGDRTFVTTTDPESGSRTVTVTTYDPTTNTATTTTYFVPPDGVPTRVATTTTPLPPTSAGG [r13_768_JUSTAS]	6.23 ± 0.406 kJ/mol	6.03 ± 0.544 kJ/mol	5.04 ± 0.322 kJ/mol
SAGGDEDDWRPIEIPLYIRNPENGHLFQITPMKIWVPDNLTIEMEMEMFDPDDGKVEKHKMTFTIPAKSAGG [r13_206_TrROS]	8.73 ± 0.879 kJ/mol	6.85 ± 0.92 kJ/mol	5.02 ± 0.368 kJ/mol
SAGGDEDKPKPKIEPKKEIEIVLPYPEDEVTPEELKARIEEETGEKITEIEVTRIPNSNEYKVKFTVESAGG [r13_457_JUSTAS]	2.84 ± 0.628 kJ/mol	2.41 ± 0.544 kJ/mol	0.948 ± 0.167 kJ/mol
SAGGDFKPPVPTTQVLTFTIETSPEDPEKAKEIAEKLKKELLEKGAVKIEVTLDPEPGTVTVTVTLVKLSAG [r5_512_JUSTAS]	12.2 ± 0.264 kJ/mol	10.5 ± 0.795 kJ/mol	8.16 ± 0.289 kJ/mol
SAGGDIKFEIGLELLPDGILVIRGSVEVRMGGQSVTYEFIIIVKIKPIPPPPPPPKPKYNPEDGKWKSAGGS [r8_269_TrROS]	12.1 ± 0.46 kJ/mol	10.8 ± 0.92 kJ/mol	9.69 ± 0.318 kJ/mol
SAGGDKKKVKIHIFPPPGMPMDNFANYIQDQLGWDRNNIKVEPMDSPQEAERRAEKNGKPEIVIFFRSAGGS [r8_245_TrROS]	4.26 ± 2.26 kJ/mol	1.91 ± 1.34 kJ/mol	-0.906 ± 1.3 kJ/mol
SAGGDKLEDLPLEDVEVLRVEVIPLPDGGVLVVFEFKVSDEEGPERLVRVVVLVENDEARVFVEPLGSAGGS [r16_469_TrMRF]	13.4 ± 0.339 kJ/mol	12.2 ± 0.544 kJ/mol	8.59 ± 0.356 kJ/mol
SAGGDMWMIKVEHPNGRPFQIMINPNKPEISIQFNDGETRTFPIPKDYTIEDLAKELPPGYKVEIHPMSAGG [r13_696_TrROS]	10.3 ± 0.213 kJ/mol	10 ± 0.711 kJ/mol	9.42 ± 0.418 kJ/mol
SAGGDNIDVERHPHPNNMYMFSITIPPDYPLKIRYPNGPKHEIPIPDPNATIHFMFPPDEPIEIEIYPSAGG [r13_82_TrROS]	5.24 ± 0.502 kJ/mol	5.03 ± 0.347 kJ/mol	4.67 ± 0.0795 kJ/mol
SAGGDPDGKPKIEIKIKDINVEPDPDNGYYRATIKIRFPNGREINFDIPMPPGQTAEQVKEQAREMIQSAGG [r13_578_TrROS]	5.18 ± 0.397 kJ/mol	6.05 ± 0.711 kJ/mol	7.41 ± 0.105 kJ/mol
SAGGDPGKPTSVTLTLTVPKDKKTVKLEVTFNPETGEAVITFPGSSKTVTLPFGSLPDVLDAAKKLLYSAGG [r13_439_TrMRF]	11.1 ± 0.146 kJ/mol	10.4 ± 0.293 kJ/mol	9.66 ± 0.264 kJ/mol
SAGGDPLVLEFDGVTVVYDPKTKTLVVFAPSSEVERLVKALGPKFEPLEIFELEDGSVVMLVRIKPESAGGS [r8_415_TrMRF]	18.9 ± 0.418 kJ/mol	18.2 ± 0.544 kJ/mol	14.8 ± 0.502 kJ/mol
SAGGDPNGKWVTINIPIWIPGPPEQAEMIAESIMEELGFEITDVKVEPHPDDPNWVRIDITLTFRKKSAGGS [r8_479_TrROS]	12.7 ± 0.184 kJ/mol	11.9 ± 0.753 kJ/mol	11.5 ± 0.406 kJ/mol
SAGGDPPNIEVVPYRVKFGGKPIPIQVFVMPNGQTIVRIKFPNGKKGWMPADDLDELLKNPFEIERVSAGGS [r16_105_TrROS]	4.18 ± 0.586 kJ/mol	4.63 ± 0.586 kJ/mol	5.06 ± 0.0962 kJ/mol
SAGGDPVRIFIMSGNGIFPIEIPLDPGEKVEFEMKFNGQEVTITITPGDGEIEIEMPPGFNIMALEPSAGGS [r16_761_TrROS]	8.58 ± 0.159 kJ/mol	7.91 ± 0.46 kJ/mol	6.64 ± 0.36 kJ/mol
SAGGDVTISIMIFVWPGWTEEQYKEMAKEVAKTIARQLAQKNPDLNENIDIEDIEVTIIPMEGDPDYFSAGG [r13_128_TrROS]	5.66 ± 0.418 kJ/mol	7.04 ± 0.795 kJ/mol	7.98 ± 0.205 kJ/mol
SAGGEAEVVARAEVTLPDGVKVEVEVVRVDGKLVVRVRVEVRLPPPPPPPPPPLPPLSEEERKKLAEASAGG [r13_760_TrROS_Hall]	8.76 ± 0.669 kJ/mol	9.11 ± 0.92 kJ/mol	8.73 ± 0.381 kJ/mol
SAGGEAEVVEPEEKLEIVDKETGKKITVYKVKNKETGEEVVLVEIEKNGKKYTVLMTKDELEALLKKSAGGS [r16_603_TrROS_Hall]	13.8 ± 0.238 kJ/mol	12.5 ± 1.17 kJ/mol	9.97 ± 0.879 kJ/mol
SAGGEEEAVEKPFYQLPEKKPLKTVPMSREEALALARENPDLGILYAEEDGKLWKVDAETGTIEPLGSAGGS [r16_214_JUSTAS]	6.63 ± 0.46 kJ/mol	6.09 ± 0.586 kJ/mol	5.14 ± 0.18 kJ/mol
SAGGEEEEFEVVAEIEIEVDGKTYTITIVRDKETDEYRVEIRNKETGETKTITVSAEELEELLKALSSAGGS [r8_469_TrROS_Hall]	19.9 ± 1.34 kJ/mol	20 ± 2.18 kJ/mol	13.3 ± 1.51 kJ/mol
SAGGEEVVEEPPPPEVEVIEIRDAETDRTVTLVYNKDTGKLFLFDEDTGLVYEFDVDGRLVRVERLPPSAGG [r13_101_TrROS_Hall]	18.7 ± 0.418 kJ/mol	17.4 ± 1.63 kJ/mol	12.3 ± 1.09 kJ/mol
SAGGEEVVVERPPAPPPITVTIEYDEETNTVTVTVTLPNGETLTITVEAPSLEEAEAAARELLEALSSAGGS [r16_319_TrROS_Hall]	12.4 ± 1.55 kJ/mol	12.3 ± 1.3 kJ/mol	11.1 ± 1.17 kJ/mol
SAGGEFEVEELPPGGLLLVTFRAPADLPLEIPLEFTSPDGSPVEVAEYEREPFGDYVLITVLVRVPDSAGGS [r16_499_TrMRF]	11.6 ± 0.669 kJ/mol	11.4 ± 0.753 kJ/mol	9.43 ± 0.669 kJ/mol
SAGGEFEVYRVKSPDSVVTVTVLPDRVVVNLTDEKNPKVVPIPYPPGHPPTLEDVLALLKSLGFKVEPSAGG [r13_687_TrMRF]	6.9 ± 0.18 kJ/mol	7.47 ± 0.172 kJ/mol	7.73 ± 0.138 kJ/mol
SAGGEFLEKVIEAAIEAAKAGPDAKLELTIPVPGGPVKVTIEVGEDGKVKVTIYKGDKKILEIELPLSAGGS [r16_611_TrMRF]	19.3 ± 1.42 kJ/mol	> 25.1 kJ/mol	16.1 ± 1.46 kJ/mol
